How the values were obtained:
[1] = target: Mono-nucleosomes from mouse embryonic stem cells (ESCs) (mouse) (UniProt P68433); experiment: single-molecule TIRF time-lapse imaging, images every 15 minutes
[2] = target: Recombinant unmodified nucleosomes; experiment: single-molecule TIRF time-lapse imaging, summed binding events

time to equilibrium of binding and dissociation [1] | percent of nucleosomes scored (bound by antibody) [2] | Substance
75 min | – | Tri-Methyl-Histone H3 (Lys4) (C42D8) Rabbit mAb (Alexa Fluor 555 Conjugate) #11960 (antibody)
– | 0.1% | Acetyl-Histone H3 (Lys9) (C5B11) Rabbit mAb (Alexa Fluor 647 Conjugate) #4484 (antibody)
45 min | – | Tri-Methyl-Histone H3 (Lys27) (C36B11) Rabbit mAb (Alexa Fluor 647 Conjugate) #12158 (antibody)
